Laboratory results from patent US20260167699A1 (Chugai, published 2026).
Where two headings read alike, the source gives them in different places.

T1: FcγRIIb extracellular domain with C-terminal His tag (human, UniProt P31994 43-217)
T1 construct: extracellular domain
T1 sequence: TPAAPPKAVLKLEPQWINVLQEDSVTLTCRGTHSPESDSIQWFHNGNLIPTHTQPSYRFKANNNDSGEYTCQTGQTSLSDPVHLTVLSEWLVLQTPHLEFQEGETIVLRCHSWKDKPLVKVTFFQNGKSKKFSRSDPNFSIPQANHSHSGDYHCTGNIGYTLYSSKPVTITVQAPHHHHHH

T2: FcγRIIa(H) extracellular domain with C-terminal His tag (human, UniProt P12318 34-217)
T2 construct: extracellular domain; polymorphic form H131; also called FcγRIIa H type
T2 sequence: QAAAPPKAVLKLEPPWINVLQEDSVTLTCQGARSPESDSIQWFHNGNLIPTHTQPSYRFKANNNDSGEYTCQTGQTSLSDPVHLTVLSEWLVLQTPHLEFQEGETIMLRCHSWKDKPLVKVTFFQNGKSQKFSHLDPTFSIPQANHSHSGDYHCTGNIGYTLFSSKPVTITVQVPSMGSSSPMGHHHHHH

T3: FcγRIIa(R) extracellular domain with C-terminal His tag (human, UniProt P12318 34-217)
T3 construct: extracellular domain; polymorphic form R131; also called FcγRIIa R type
T3 sequence: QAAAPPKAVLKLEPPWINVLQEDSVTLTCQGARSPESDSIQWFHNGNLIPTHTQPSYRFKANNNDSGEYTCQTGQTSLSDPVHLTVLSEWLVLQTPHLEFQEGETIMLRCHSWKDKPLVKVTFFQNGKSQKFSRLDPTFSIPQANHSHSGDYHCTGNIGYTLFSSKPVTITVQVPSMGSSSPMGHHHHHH


Key:
[1] = target: T4, FcγRIIIa extracellular domain with C-terminal His tag (allotype not given) (UniProt P08637 17-208, limits assumed); assay: SPR (Biacore), from the KD values of Table 5
T4 construct: extracellular domain; also called 3a

[2] = target: T5, integrin αvβ3 (R & D Systems, Inc.) (UniProt P06756 31-992; P05106 27-718); assay: ELISA on coated integrin αvβ3 (1 µg/mL), detection with HRP-labeled anti-human IgG antibody
T5 construct: Bought protein
Description: The integrin αvβ3 binding of each molecule with the RGD (Arg-Gly-Asp) peptide inserted in the Fc region was assessed by ELISA (enzyme-Linked immunosorbent assay). Specifically, integrin αvβ3 (R & D Systems, Inc.) diluted to 1 μg/mL with a coating buffer (0.1 M NaHCO₃, pH 9.6) was added at a concentration of 100 μL/well to Nunc-Immuno™ MicroWell™ 96 well solid plates (Nunc) to immobilize the integrin αvβ3 to the plates. Each well of the antigen (integrin αvβ3)-immobilized plates was washed three times with 250 μL of a TBS solution containing 0.1 g/L calcium chloride and 0.1 g/L magnesium chloride (referred to as a TBS(+) solution). A TBS solution containing 5% BSA, 0.1 g/L calcium chloride, and 0.1 g/L magnesium chloride (referred to as a blocking solution) was added thereto at a concentration of 250 μL/well, and the plates were incubated at room temperature for 1 hour.
After removal of the blocking solution, each well was washed three times with a TBS(+) solution. […]
After removal of the HRP-labeled antibody solution, each well was washed three times with a TBS(+) solution. […] The absorbance of the solution whose reaction had been stopped was measured at a wavelength of 450 nm.

[3] = target: T1, FcγRIIb extracellular domain with …; assay: SPR (Biacore), captured antibody, FcγR analyte, 1:1 Langmuir fit; afucosylated antibody (same sequence as G1d, other glycoform)
[4] = target: T1, FcγRIIb extracellular domain with …; assay: SPR (Biacore), captured antibody, FcγR analyte, 1:1 Langmuir fit; afucosylated G1d; Table 8 reprint of Table 7
Description: (§1) The antibody of interest was analyzed for its interaction with FcγR using a BiaCore™ T100, BiaCore™ A100, or BiaCore™ 4000 surface plasmon resonance system (GE Healthcare Japan Corp.). The running buffer used was HBS-EP+ (GE Healthcare Japan Corp.). The assay temperature was set to 25° C. The sensor chips used were: a chip prepared by immobilizing antigenic peptides onto Series S Sensor Chip CM5 (GE Healthcare Japan Corp.) by the amine coupling method; a chip prepared by immobilizing antigenic peptides biotinylated in advance onto Series S Sensor Chip SA (certified) (GE Healthcare Japan Corp.) through their interaction; a chip prepared by immobilizing protein L (ACTIGEN, BioVision, Inc.) onto Series S Sensor Chip CM5 (GE Healthcare Japan Corp.); and a chip prepared by immobilizing protein A/G (Thermo Fisher Scientific K.K.) onto Series S Sensor Chip CM5 (GE Healthcare Japan Corp.). The antibody of interest was captured onto any of these chips and allowed to interact with FcγR diluted with a running buffer. The antibody captured on the chip was washed off through the reaction of 10 mM glycine-HCl (pH 1.5) to regenerate the chip, which was repetitively used.

[5] = target: T6, FcγRIIIa(V) extracellular domain with C-terminal His tag (human, UniProt P08637 17-208); assay: SPR (Biacore), captured antibody, FcγR analyte, 1:1 Langmuir fit
T6 construct: extracellular domain; polymorphic form V158; also called FcγRIIIa V type
Description: as §1

[6] = target: T2, FcγRIIa(H) extracellular domain with …; assay: as above
Description: as §1

[7] = target: T7, FcγRIa extracellular domain with C-terminal His tag (human, UniProt P12314 16-292); assay: as above
T7 construct: extracellular domain
Description: as §1

[8] = target: T3, FcγRIIa(R) extracellular domain with …; assay: as above
Description: as §1

[9] = target: T8, FcγRIIIa(F) extracellular domain with C-terminal His tag (human, UniProt P08637 17-208); assay: as above
T8 construct: extracellular domain; polymorphic form F158; also called FcγRIIIa F type
Description: as §1

[10] = target: T6, FcγRIIIa(V) extracellular domain with …; assay: as above; remark: listed apart in the source
Description: as §1

[11] = target: T2, FcγRIIa(H) extracellular domain with …; assay: as above; remark: listed apart in the source
Description: as §1

[12] = target: T7, FcγRIa extracellular domain with …; assay: as above; remark: listed apart in the source
Description: as §1

[13] = target: T3, FcγRIIa(R) extracellular domain with …; assay: as above; remark: listed apart in the source
Description: as §1

[14] = target: T8, FcγRIIIa(F) extracellular domain with …; assay: as above; remark: listed apart in the source
Description: as §1

[15] = target: T1, FcγRIIb extracellular domain with …; assay: SPR (Biacore), captured antibody, FcγR analyte, 1:1 Langmuir fit; naturally occurring IgG1 (not afucosylated)
Description: as §1

T7 sequence (P12314 other isoform, or with tags, fused parts or gaps): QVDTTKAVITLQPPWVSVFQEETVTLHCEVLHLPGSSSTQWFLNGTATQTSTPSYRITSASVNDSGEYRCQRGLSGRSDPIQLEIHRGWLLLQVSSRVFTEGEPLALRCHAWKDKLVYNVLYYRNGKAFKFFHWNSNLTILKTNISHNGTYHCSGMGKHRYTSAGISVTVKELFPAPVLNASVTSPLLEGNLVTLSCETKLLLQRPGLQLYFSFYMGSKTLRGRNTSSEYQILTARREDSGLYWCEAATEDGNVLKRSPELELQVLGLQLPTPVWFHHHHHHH
T8 sequence (P08637 other isoform, or with tags, fused parts or gaps): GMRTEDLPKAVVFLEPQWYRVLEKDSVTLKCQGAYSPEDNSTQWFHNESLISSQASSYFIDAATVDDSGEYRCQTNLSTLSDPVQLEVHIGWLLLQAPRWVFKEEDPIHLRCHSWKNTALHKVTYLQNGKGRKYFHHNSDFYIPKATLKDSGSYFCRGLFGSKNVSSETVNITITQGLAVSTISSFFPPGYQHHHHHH
T6 sequence (P08637 other isoform, or with tags, fused parts or gaps): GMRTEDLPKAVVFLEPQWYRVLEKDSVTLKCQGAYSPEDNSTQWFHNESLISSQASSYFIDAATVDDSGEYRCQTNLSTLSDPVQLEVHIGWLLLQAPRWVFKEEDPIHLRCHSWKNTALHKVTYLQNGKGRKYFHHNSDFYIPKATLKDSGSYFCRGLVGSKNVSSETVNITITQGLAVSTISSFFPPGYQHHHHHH
T5 sequence (P06756 31-992, chain 1 of 2): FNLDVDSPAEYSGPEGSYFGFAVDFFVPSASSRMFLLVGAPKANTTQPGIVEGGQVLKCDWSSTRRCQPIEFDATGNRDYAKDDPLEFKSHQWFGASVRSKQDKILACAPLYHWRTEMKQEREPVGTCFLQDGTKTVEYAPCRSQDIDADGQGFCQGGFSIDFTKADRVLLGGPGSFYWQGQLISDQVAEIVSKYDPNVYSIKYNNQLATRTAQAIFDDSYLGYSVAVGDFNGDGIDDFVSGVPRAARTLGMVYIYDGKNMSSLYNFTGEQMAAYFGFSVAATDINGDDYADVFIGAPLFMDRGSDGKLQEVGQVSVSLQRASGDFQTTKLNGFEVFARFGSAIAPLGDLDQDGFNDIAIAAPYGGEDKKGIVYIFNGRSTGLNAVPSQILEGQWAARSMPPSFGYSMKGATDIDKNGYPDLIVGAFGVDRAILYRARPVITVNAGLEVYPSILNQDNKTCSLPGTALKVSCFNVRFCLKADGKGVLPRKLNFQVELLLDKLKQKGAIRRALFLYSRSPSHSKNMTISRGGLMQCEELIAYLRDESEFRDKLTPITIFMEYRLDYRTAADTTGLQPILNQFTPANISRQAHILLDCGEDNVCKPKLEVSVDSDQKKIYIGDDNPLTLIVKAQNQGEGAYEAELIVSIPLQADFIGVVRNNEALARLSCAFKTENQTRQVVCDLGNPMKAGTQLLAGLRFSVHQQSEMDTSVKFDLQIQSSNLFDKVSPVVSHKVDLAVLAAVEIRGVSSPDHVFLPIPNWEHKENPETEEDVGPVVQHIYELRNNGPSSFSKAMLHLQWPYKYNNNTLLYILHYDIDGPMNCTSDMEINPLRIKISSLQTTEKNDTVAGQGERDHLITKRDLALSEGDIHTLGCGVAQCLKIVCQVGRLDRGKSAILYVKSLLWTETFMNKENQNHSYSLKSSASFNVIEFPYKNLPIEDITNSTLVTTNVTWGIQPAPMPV
T5 sequence (P05106 27-718, chain 2 of 2): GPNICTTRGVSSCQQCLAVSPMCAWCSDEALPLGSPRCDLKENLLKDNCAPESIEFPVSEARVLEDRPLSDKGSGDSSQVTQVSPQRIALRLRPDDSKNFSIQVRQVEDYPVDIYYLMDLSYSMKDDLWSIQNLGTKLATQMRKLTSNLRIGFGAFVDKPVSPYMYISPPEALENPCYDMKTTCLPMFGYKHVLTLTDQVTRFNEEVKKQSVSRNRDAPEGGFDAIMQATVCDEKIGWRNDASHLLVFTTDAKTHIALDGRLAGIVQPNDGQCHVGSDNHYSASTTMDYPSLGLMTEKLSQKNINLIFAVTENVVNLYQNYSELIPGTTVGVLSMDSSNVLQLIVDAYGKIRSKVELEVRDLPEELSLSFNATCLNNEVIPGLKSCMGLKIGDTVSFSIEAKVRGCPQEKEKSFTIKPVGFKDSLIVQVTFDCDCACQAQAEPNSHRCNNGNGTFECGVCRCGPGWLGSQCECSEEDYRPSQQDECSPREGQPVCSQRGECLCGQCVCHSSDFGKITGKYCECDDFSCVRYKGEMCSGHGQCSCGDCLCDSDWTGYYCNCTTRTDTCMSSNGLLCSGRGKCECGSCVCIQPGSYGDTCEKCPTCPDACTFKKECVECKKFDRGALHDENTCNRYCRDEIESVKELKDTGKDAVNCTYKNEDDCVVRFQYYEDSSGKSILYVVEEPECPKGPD

Row | Binder | Kd [5] [nM] | Kd [6] [nM] | Kd [7] [nM] | Kd [8] [nM] | Kd [9] [nM] | Kd [10] [nM] | Kd [11] [nM] | Kd [12] [nM] | Kd [13] [nM] | Kd [14] [nM] | also measured
1 | GpH7-A57/GpH7-B78/GpL16-k0 (antibody, human IgG1, kappa, Called homodimerized: S239D, A330L, I332E in both H chains) heavy 1: QVQLVQSGAEVKKPGASVTVSCKASGYTFTDYEMHWIRQPPGEGLEWIGAIDPKTGDTAYSESFQDRVTLTADKSTSTAYMELSSLTSEDTAVYYCTRFYSYTYWGQGTLVTVSSASTKGPSVFPLAPSSKSTSGGTAALGCLVKDYFPEPVTVSWNSGALTSGVHTFPAVLQSSGLYSLSSVVTVPSSSLGTQTYICNVNHKPSNTKVDKKVEPKSCDKTHTCPPCPAPELLGGPDVFLFPPKPKDTLMISRTPEVTCVVVDVSHEDPEVKFNWYVDGVEVHNAKTKPREEQYNSTYRVVSVLTVLHQDWLNGKEYKCKVSNKALPLPEEKTISKAKGQPREPQVYTLPPSRKELTKNQVSLTCLVKGFYPSDIAVEWESNGQPENNYKTTPPVLDSDGSFFLYSKLTVDKSRWQQGNVFSCSVMHEALHNRYTQKSLSLSP heavy 2: QVQLVQSGAEVKKPGASVTVSCKASGYTFTDYEMHWIRQPPGEGLEWIGAIDPKTGDTAYSESFQDRVTLTADKSTSTAYMELSSLTSEDTAVYYCTRFYSYTYWGQGTLVTVSSASTKGPSVFPLAPSSKSTSGGTAALGCLVKDYFPEPVTVSWNSGALTSGVHTFPAVLQSSGLYSLSSVVTVPSSSLGTQTYICNVNHKPSNTKVDKKVEPKSCDKTHTCPPCPAPELLGGPDVFLFPPKPKDTLMISRTPEVTCVVVDVSHEDPEVKFNWYVDGVEVHNAKTKPREEQYNSTYRVVSVLTVLHQDWLNGKEYKCKVSNKALPLPEEKTISKAKGQPREPQVYTLPPSRDELTKNQVSLTCLVKGFYPSDIAVEWESNGQPENNYKTTPPVLDSDGSFFLYSKLTVDKSRWQQGNVFSCSVMHEALHNHYTQESLSLSP light: DIVMTQSPLSLPVTPGEPASISCQASESLVHSNRNTYLHWYLQKPGQSPQLLIYKVSNRFSGVPDRFSGSGSGTDFTLKISRVEAEDVGVYYCSQNTHVPPTFGQGTKVEIERTVAAPSVFIFPPSDEQLKSGTASVVCLLNNFYPREAKVQWKVDNALQSGNSQESVTEQDSKDSTYSLSSTLTLSKADYEKHKVYACEVTHQGLSSPVTKSFNRGEC |  |  |  |  |  |  |  |  |  |  | fold FcγRIIIa-binding activity against the corresponding heterodimerized antibody (GpH7-A5/GpH7-B78/GpL16-k0) [1]: ~9 times
2 | GpH7-TA7/GpH7-B78/GpL16-k0 (antibody, human IgG1, kappa, L234Y, G236W, S298A in one H chain and S239D, A330L, I332E in the other) heavy 1: QVQLVQSGAEVKKPGASVTVSCKASGYTFTDYEMHWIRQPPGEGLEWIGAIDPKTGDTAYSESFQDRVTLTADKSTSTAYMELSSLTSEDTAVYYCTRFYSYTYWGQGTLVTVSSASTKGPSVFPLAPSSKSTSGGTAALGCLVKDYFPEPVTVSWNSGALTSGVHTFPAVLQSSGLYSLSSVVTVPSSSLGTQTYICNVNHKPSNTKVDKKVEPKSCDKTHTCPPCPAPEYLWGPSVFLFPPKPKDTLMISRTPEVTCVVVDVSHEDPEVKFNWYVDGVEVHNAKTKPREEQYNATYRVVSVLTVLHQDWLNGKEYKCKVSNKALPAPIEKTISKAKGQPREPQVYTLPPSRKELTKNQVSLTCLVKGFYPSDIAVEWESNGQPENNYKTTPPVLDSDGSFFLYSKLTVDKSRWQQGNVFSCSVMHEALHNRYTQKSLSLSP heavy 2: QVQLVQSGAEVKKPGASVTVSCKASGYTFTDYEMHWIRQPPGEGLEWIGAIDPKTGDTAYSESFQDRVTLTADKSTSTAYMELSSLTSEDTAVYYCTRFYSYTYWGQGTLVTVSSASTKGPSVFPLAPSSKSTSGGTAALGCLVKDYFPEPVTVSWNSGALTSGVHTFPAVLQSSGLYSLSSVVTVPSSSLGTQTYICNVNHKPSNTKVDKKVEPKSCDKTHTCPPCPAPELLGGPDVFLFPPKPKDTLMISRTPEVTCVVVDVSHEDPEVKFNWYVDGVEVHNAKTKPREEQYNSTYRVVSVLTVLHQDWLNGKEYKCKVSNKALPLPEEKTISKAKGQPREPQVYTLPPSRDELTKNQVSLTCLVKGFYPSDIAVEWESNGQPENNYKTTPPVLDSDGSFFLYSKLTVDKSRWQQGNVFSCSVMHEALHNHYTQESLSLSP light: DIVMTQSPLSLPVTPGEPASISCQASESLVHSNRNTYLHWYLQKPGQSPQLLIYKVSNRFSGVPDRFSGSGSGTDFTLKISRVEAEDVGVYYCSQNTHVPPTFGQGTKVEIERTVAAPSVFIFPPSDEQLKSGTASVVCLLNNFYPREAKVQWKVDNALQSGNSQESVTEQDSKDSTYSLSSTLTLSKADYEKHKVYACEVTHQGLSSPVTKSFNRGEC |  |  |  |  |  |  |  |  |  |  | fold FcγRIIIa-binding activity against GpH7-A5/GpH7-B78/GpL16-k0 [1]: ≥ 10 times
3 | H240-Kn125/H240-Hl076/L73-k0 (antibody, human IgG1, kappa, also called Hl076/Kn125; parent peptide) heavy 1: QDQLVQSGAEVKKPGASVKVSCKASGFNIKDTYIQWVRQAPGQGLEWMGRIDPLRKQTKYREKFEGRVTITADTSTNTAYMELSSLRSEDTAVYYCVRSGREFDYWGQGTLVTVSSASTKGPSVFPLAPSSKSTSGGTAALGCLVKDYFPEPVTVSWNSGALTSGVHTFPAVLQSSGLYSLSSVVTVPSSSLGTQTYICNVNHKPSNTKVDKKVEPKSCDKTHTCPPCPAPEYQWGPMVFLFPPKPKDTLMISRTPEVTCVVVDVSDEEPEVKFNWYVDGVEVHNAKTKPREEQYNATYRVVSVLTVLHQDWLNGKEYKCKVSNKALPAPIEKTISKAKGQPREPQVCTLPPSRDELTKNQVSLWCLVKGFYPSDIAVEWESNGQPENNYKTTPPVLDSDGSFFLYSKLTVDKSRWQQGNVFSCSVMHEALHNHYTQKSLSLSP heavy 2: QDQLVQSGAEVKKPGASVKVSCKASGFNIKDTYIQWVRQAPGQGLEWMGRIDPLRKQTKYREKFEGRVTITADTSTNTAYMELSSLRSEDTAVYYCVRSGREFDYWGQGTLVTVSSASTKGPSVFPLAPSSKSTSGGTAALGCLVKDYFPEPVTVSWNSGALTSGVHTFPAVLQSSGLYSLSSVVTVPSSSLGTQTYICNVNHKPSNTKVDKKVEPKSCDKTHTCPPCPAPELLGGPSVFLFPPKPKDTLMISRTPEVTCVVVDVSHEEPEVKFNWYVDGVEVHNAKTKPREEQYNSTYRVVSVLTVLHQDWLNGKEYKCKVSNDALPMPIEETISKAKGQPREPQVYTLPPSRCELTKNQVSLSCAVKGFYPSDIAVEWESNGQPENNYKTTPPVLDSDGSFFLVSKLTVDKSRWQQGNVFSCSVMHEALHNHYTQKSLSLSP light: DIQMTQSPSSLSASVGDRVTITCRASQDIHKYIAWYQQKPGQAPRLLIQYTSTLQPGVPSRFSGSGSGTDYTFTISSLQPEDIATYYCLQYEQLRTFGGGTKVEIKRTVAAPSVFIFPPSDEQLKSGTASVVCLLNNFYPREAKVQWKVDNALQSGNSQESVTEQDSKDSTYSLSSTLTLSKADYEKHKVYACEVTHQGLSSPVTKSFNRGEC |  |  |  |  |  |  |  |  |  |  | binding result [2]: no binding (tested: 100 µg/mL)

The next lines start with results.

Row | Kd [5] [nM] | Kd [6] [nM] | Kd [7] [nM] | Kd [8] [nM] | Kd [9] [nM] | Kd [10] [nM] | Kd [11] [nM] | Kd [12] [nM] | Kd [13] [nM] | Kd [14] [nM] | Binder | also measured
4 | 6.9 | 780 | 0.43 | 490 | 78 | 6.9 | 780 | 0.43 | 490 | 78 | H240-afucosyl_G1d/L73-k0 (antibody, human IgG1, kappa, afucosylated (fucose-deficient sugar chain), afucosylated form of the anti-epiregulin IgG1 H240-G1d/L73-k0; also called afucosylated antibody) heavy: not shown light: DIQMTQSPSSLSASVGDRVTITCRASQDIHKYIAWYQQKPGQAPRLLIQYTSTLQPGVPSRFSGSGSGTDYTFTISSLQPEDIATYYCLQYEQLRTFGGGTKVEIKRTVAAPSVFIFPPSDEQLKSGTASVVCLLNNFYPREAKVQWKVDNALQSGNSQESVTEQDSKDSTYSLSSTLTLSKADYEKHKVYACEVTHQGLSSPVTKSFNRGEC | Kd [3]: 2600 nM; Kd [4]: 2600 nM
5 | 310 | 660 | 0.23 | 880 | 1400 | 310 | 660 | 0.23 | 880 | 1400 | H240-G1d/L73-k0 (antibody, human IgG1, kappa, anti-epiregulin IgG1; also called H240-G1d/H240-G1d/L73-k0; naturally occurring IgG1) heavy: not shown light: DIQMTQSPSSLSASVGDRVTITCRASQDIHKYIAWYQQKPGQAPRLLIQYTSTLQPGVPSRFSGSGSGTDYTFTISSLQPEDIATYYCLQYEQLRTFGGGTKVEIKRTVAAPSVFIFPPSDEQLKSGTASVVCLLNNFYPREAKVQWKVDNALQSGNSQESVTEQDSKDSTYSLSSTLTLSKADYEKHKVYACEVTHQGLSSPVTKSFNRGEC | Kd [15]: 6000 nM
